The text below walks through data of US20240317847A1 (Bayer, published 2024).

Changes are numbered by the printed parent chain. Numbers in names are those of the source.

Sequences and labels used below:
T1: murine IL-11 (mouse, UniProt P47873 22-199)
T1 construct: bought from Invigate; also called mIL-11; mIL11
T1 sequence: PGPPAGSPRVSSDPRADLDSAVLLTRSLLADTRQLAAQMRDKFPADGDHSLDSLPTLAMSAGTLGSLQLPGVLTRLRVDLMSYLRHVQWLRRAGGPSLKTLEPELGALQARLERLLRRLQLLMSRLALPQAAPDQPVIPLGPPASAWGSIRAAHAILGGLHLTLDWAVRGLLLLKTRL

T2: human IL-11 (human, UniProt P20809 22-199)
T2 construct: bought from Invigate; also called hIL-11; hIL11
T2 sequence: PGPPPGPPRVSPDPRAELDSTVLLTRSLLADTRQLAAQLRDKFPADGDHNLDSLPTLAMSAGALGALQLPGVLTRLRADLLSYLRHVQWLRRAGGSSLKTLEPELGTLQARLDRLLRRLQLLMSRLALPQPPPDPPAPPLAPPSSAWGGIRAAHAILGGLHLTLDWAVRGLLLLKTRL

T3: murine IL-11 (Invigate, e.g., lot #C210819-09) (mouse, UniProt P47873 22-199)
T3 construct: Bought protein; biotinylated where captured on streptavidin plates; also called mIL-11; mIL11
T3 sequence: T1 sequence

T4: human IL-11 (Invigate, e.g., lot #C121021-19) (human, UniProt P20809 22-199)
T4 construct: Bought protein; also called hIL-11; hIL11
T4 sequence: T2 sequence

B1: TPP-18068 (antibody, mouse IgG1)
heavy: EVQLLESGGGLVQPGGSLRLSCAASGFTFSSYGMHWVRQAPGKGLEWVSVISYDGSYKYYADSVKGRFTISRDNSKNTLYLQMNSLRAEDTAVYYCAAGVPDYWGQGTLVTVSSAKTTPPSVYPLAPGSAAQTNSMVTLGCLVKGYFPEPVTVTWNSGSLSSGVHTFPAVLQSDLYTLSSSVTVPSSTWPSETVTCNVAHPASSTKVDKKIVPRDCGCKPCICTVPEVSSVFIFPPKPKDVLTITLTPKVTCVVVDISKDDPEVQFSWFVDDVEVHTAQTQPREEQFNSTFRSVSELPIMHQDWLNGKEFKCRVNSAAFPAPIEKTISKTKGRPKAPQVYTIPPPKEQMAKDKVSLTCMITDFFPEDITVEWQWNGQPAENYKNTQPIMDTDGSYFVYSKLNVQKSNWEAGNTFTCSVLHEGLHNHHTEKSLSHSPGK
light: QSVLTQPPSASGTPGQRVTISCTGSSSNIGAGYDVHWYQQLPGTAPKLLIYSNNERPSGVPDRFSGSKSGTSASLAISGLRSEDEADYYCAAWDDSLNGPVFGGGTKLTVLGQPKSSPSVTLFPPSSEELETNKATLVCTITDFYPGVVTVDWKVDGTPVTQGMETTQPSKQSNNKYMASSYLTLTARAWERHSSYSCQVTHEGHTVEKSLSRADCS
notes: mIgG1, Lambda; also called WT; parent clone
B2: TPP-26319 (antibody, V domains shown)
VH: EVQLLESGGGLVQPGGSLRLSCAASGFTFSSYGMHWVRQAPGKGLEWVSVISYDGSYKYYADSVKGRFTISRDNSKNTLYLQMNSLRAEDTAVYYCAAGVPDYWGQGTLVTVSS
VL: QSVLTQPPSASGTPGQRVTISCTGSSSNIGAGYDVHWYQQLPGTAPKLLIYSNNEKPSGVPDRFSGSKSGTSASLAISGLRSEDEADYYCAAWDDSLNGPVFGGGTKLTVL
notes: constant regions not restated
B3: TPP-26330 (antibody, V domains shown)
VH: B2 VH with S31F
VL: B2 VL with K56R
notes: constant regions not restated
B4: TPP-26321 (antibody, V domains shown)
VH: B2 VH
VL: B2 VL with K56R, D95L
notes: constant regions not restated
B5: TPP-26329 (antibody, V domains shown)
VH: B2 VH with Y32W
VL: B2 VL with K56R
notes: constant regions not restated
B6: TPP-26324 (antibody, V domains shown)
VH: B2 VH with A61R
VL: B2 VL with K56R
notes: constant regions not restated
B7: TPP-26328 (antibody, V domains shown)
VH: B2 VH with G99T
VL: B2 VL with K56R
notes: constant regions not restated
B8: TPP-26323 (antibody, V domains shown)
VH: B2 VH
VL: B2 VL with K56R, D95G
notes: constant regions not restated
B9: TPP-26325 (antibody, V domains shown)
VH: B2 VH with S31W
VL: B2 VL with K56R
notes: constant regions not restated
B10: TPP-26326 (antibody, V domains shown)
VH: B2 VH with S31Y
VL: B2 VL with K56R
notes: constant regions not restated
B11: TPP-26331 (antibody, V domains shown)
VH: B2 VH with M34G
VL: B2 VL with K56R
notes: constant regions not restated
B12: TPP-26320 (antibody, V domains shown)
VH: B2 VH
VL: B2 VL with N54E, K56R
notes: constant regions not restated
B13: TPP-31277 (antibody, human IgG4, V domains shown)
VH: EVQLLESGGGLVQPGGSLRLSCAASGFTFSHYDMNWLRQAPGKGLEWVGVISYDGSNKFYADFVKGRFTISRDNSKNTLYLQMNSLRAEDTAVYYCARTPGSHFDYWGQGTLVTVSS
VL: QSVLTQPPSASGTPGQRVTISCSGSSSNIGSNAVNWYQQLPGTAPKLLIYYDDLLPSGVPDRFSGSKSGTSASLAISGLRSEDEADYYCSAWDDSLNGVVFGGGTKLTVL
notes: consecutive numbering; also called VL-N31S
B14: TPP-31282 (antibody, human IgG4, V domains shown)
VH: B13 VH
VL: B13 VL with S31N, D53N
notes: consecutive numbering; also called VL-D53N
B15: TPP-31287 (antibody, human IgG4, V domains shown)
VH: B13 VH with L5V
VL: B13 VL with S31N
notes: consecutive numbering; also called VH-L5V
B16: TPP-31294 (antibody, human IgG4, V domains shown)
VH: B13 VH with G49A
VL: B13 VL with S31N
notes: consecutive numbering; also called VH-G49A
B17: TPP-31284 (antibody, human IgG4, V domains shown)
VH: B13 VH
VL: B13 VL with S31N, L55R
notes: consecutive numbering; also called VL-L55R
B18: TPP-31288 (antibody, human IgG4, V domains shown)
VH: B13 VH with L11V
VL: B13 VL with S31N
notes: consecutive numbering; also called VH-L11V
B19: TPP-31285 (antibody, human IgG4, V domains shown)
VH: B13 VH
VL: B13 VL with S31N, S90A
notes: consecutive numbering; also called VL-S90A
B20: TPP-31293 (antibody, human IgG4, V domains shown)
VH: B13 VH with L37V
VL: B13 VL with S31N
notes: consecutive numbering; also called VH-L37V
B21: TPP-31281 (antibody, human IgG4, V domains shown)
VH: B13 VH
VL: B13 VL with S31N, D52N
notes: consecutive numbering; also called VL-D52N
B22: TPP-31292 (antibody, human IgG4, V domains shown)
VH: B13 VH with N35H
VL: B13 VL with S31N
notes: consecutive numbering; also called VH-N35H
B23: TPP-31289 (antibody, human IgG4, V domains shown)
VH: B13 VH with G16R
VL: B13 VL with S31N
notes: consecutive numbering; also called VH-G16R
B24: TPP-31278 (antibody, human IgG4, V domains shown)
VH: B13 VH
VL: B13 VL with S31N, A33Y
notes: consecutive numbering; also called VL-A33Y
B25: TPP-31290 (antibody, human IgG4, V domains shown)
VH: B13 VH with H31S
VL: B13 VL with S31N
notes: consecutive numbering; also called VH-H31S
B26: TPP-31286 (antibody, human IgG4, V domains shown)
VH: B13 VH with E1Q
VL: B13 VL with S31N
notes: consecutive numbering; also called VH-E1Q
B27: TPP-31283 (antibody, human IgG4, V domains shown)
VH: B13 VH
VL: B13 VL with S31N, L54Q
notes: consecutive numbering; also called VL-L54Q

One experiment deals with T1, murine IL-11. Description: SPR, antibody captured, IL-11 as analyte.
The term Kd denotes the free concentration of one partner at which half of the binding sites on the other are occupied at equilibrium, for simple one-to-one binding. Higher therefore signals weaker binding. The molecule B1 returned a Kd of 0.86 nM.

As to B2, the affinity, expressed as Kd, was 1.4 nM.

As for B3, the Kd is 1.7 nM.

B4 displayed a Kd of 0.94 nM.

B5 displayed a Kd of 0.92 nM.

On to B6, for which binding was characterised by a dissociation constant (Kd) of 1.2 nM.

B7 returned an equilibrium dissociation constant (Kd) of 1.3 nM.

In turn, B8 registered a Kd of 0.58 nM.

For the molecule B9, the binding result is “no binding”.

As to B10, the affinity, expressed as Kd, was 1.2 nM.

In turn, B11 showed a Kd of 0.95 nM.

Consider B12, for which binding was put at a Kd of 0.83 nM.

Another experiment has as its target T2, human IL-11. The experiment in a line: SPR, antibody captured, IL-11 as analyte. Background: SPR reads the build-up and loss of mass on a sensor chip optically.
For B1, binding was put at a Kd of 12 nM.

The molecule B2 showed a Kd of 12 nM.

B3 yielded a Kd of 9.5 nM.

B4 displayed a Kd of 9.3 nM.

For B5, the Kd turned out to be 14 nM.

As for B6, the Kd was 13 nM.

In turn, B7 returned a Kd of 12 nM.

Molecule B8 showed a Kd of 10 nM.

In turn, B9 yielded a Kd of 6.4 nM.

On to B10, for which the Kd turned out to be 9.3 nM.

In the case of B11, the affinity, expressed as Kd, was 15 nM.

The molecule B12 displayed a Kd of 13 nM.

A further experiment deals with T3, murine IL-11 (Invigate, e.g., lot …). The experiment in a line: SPR, Biacore 8K; antibody captured on anti-human IgG Fc chip, IL-11 analyte 0-50 nM, 1:1 fit. As to the method:
(§1) Antibody binding affinity to hIL-11 (Invigate, Germany, e.g., lot #C121021-19) and mIL-11 (Invigate, Germany, e.g., lot #C210819-09) was detected using Biacore 8K. Each antibody was captured on an anti-human IgG Fc antibody immobilized CM5 sensor chip (GE). hIL-11 and mIL-11 at different concentrations (0, 5, 15.82 and 50 nM) in 1×HBS-EP+ (pH 7.4) (GE healthcare) were injected over the sensor chip at a flow rate of 30 μL/min for an association phase of 120 s, followed by 200 s dissociation phase. The chip was then regenerated by 10 mM Glycine, pH 1.5 after each binding cycle.
(§2) The sensorgrams of blank surface and buffer channel were subtracted from the test sensorgrams. The experimental data was fitted by 1:1 model using Langmiur analysis. Molecular weight of 19.3 kDa was used to calculate the molar concentration of human and mouse IL-11.
B13: the Kd was 12 nM.

Consider B14, for which the Kd was 19 nM.

As for B15, the affinity, expressed as Kd, was 13 nM.

On to B16, for which the Kd stood at 17 nM.

Consider B17, for which binding was put at a Kd of 15 nM.

B18 came in with a Kd of 15 nM.

For B19, the Kd was 18 nM.

Regarding B20, the Kd came to 12 nM.

B21 registered a Kd of 130 nM.

Molecule B22 yielded a Kd of 19 nM.

In the case of B23, the Kd came out at 14 nM.

Regarding B24, the Kd was 1.2 nM.

As for B25, binding was put at a Kd of 300 nM.

Regarding B26, the Kd worked out at 12 nM.

As to B27, the affinity, expressed as Kd, was 41 nM.

The target in the next experiment is T4, human IL-11 (Invigate, e.g., lot …). The description is as above. As to the method: as §1, §2
For the molecule B13, binding was characterised by a dissociation constant (Kd) of 9.4 nM.

B14 displayed a Kd of 13 nM.

The molecule B15 showed a Kd of 9.3 nM.

B16 registered a Kd of 11 nM.

The molecule B17 yielded a Kd of 11 nM.

Molecule B18 registered a Kd of 11 nM.

For B19, the Kd stood at 7.6 nM.

Take B20: the Kd was 4.8 nM.

For the molecule B21, the affinity, expressed as Kd, was 170 nM.

B22 returned a Kd of 11 nM.

For the molecule B23, the Kd is 9.6 nM.

B24 yielded a Kd of 2 nM.

B25 came in with a Kd of 290 nM.

Regarding B26, the affinity, expressed as Kd, was 9.1 nM.

B27 had a Kd of 48 nM.
